Measurements published in IntAct's records for PubMed 15895076.

B1: Focal adhesion kinase 1 (Homo sapiens), Q05397 (parent)
chain: MAAAYLDPNLNHTPNSSTKTHLGTGMERSPGAMERVLKVFHYFESNSEPTTWASIIRHGDATDVRGIIQKIVDSHKVKHVACYGFRLSHLRSEEVHWLHVDMGVSSVREKYELAHPPEEWKYELRIRYLPKGFLNQFTEDKPTLNFFYQQVKSDYMLEIADQVDQEIALKLGCLEIRRSYWEMRGNALEKKSNYEVLEKDVGLKRFFPKSLLDSVKAKTLRKLIQQTFRQFANLNREESILKFFEILSPVYRFDKECFKCALGSSWIISVELAIGPEEGISYLTDKGCNPTHLADFTQVQTIQYSNSEDKDRKGMLQLKIAGAPEPLTVTAPSLTIAENMADLIDGYCRLVNGTSQSFIIRPQKEGERALPSIPKLANSEKQGMRTHAVSVSETDDYAEIIDEEDTYTMPSTRDYEIQRERIELGRCIGEGQFGDVHQGIYMSPENPALAVAIKTCKNCTSDSVREKFLQEALTMRQFDHPHIVKLIGVITENPVWIIMELCTLGELRSFLQVRKYSLDLASLILYAYQLSTALAYLESKRFVHRDIAARNVLVSSNDCVKLGDFGLSRYMEDSTYYKASKGKLPIKWMAPESINFRRFTSASDVWMFGVCMWEILMHGVKPFQGVKNNDVIGRIENGERLPMPPNCPPTLYSLMTKCWAYDPSRRPRFTELKAQLSTILEEEKAQQEERMRMESRRQATVSWDSGGSDEAPPKPSRPGYPSPRSSEGFYPSPQHMVQTNHYQVSGYPGSHGITAMAGSIYPGQASLLDQTDSWNHRPQEIAMWQPNVEDSTVLDLRGIGQVLPTHLMEERLIRQQQEMEEDQRWLEKEERFLKPDVRLSRGSIDREDGSLQGPIGNQHIYQPVGKPDPAAPPKKPPRPGAPGHLGSLASLSSPADSYNEGVKLQPQEISPPPTANLDRSNDKVYENVTGLVKAVIEMSSKIQPAPPEEYVPMVKEVGLALRTLLATVDETIPLLPASTHREIEMAQKLLNSDLGELINKMKLAQQYVMTSLQQEYKKQMLTAAHALAVDAKNLLDVIDQARLKMLGQTRPH
partner: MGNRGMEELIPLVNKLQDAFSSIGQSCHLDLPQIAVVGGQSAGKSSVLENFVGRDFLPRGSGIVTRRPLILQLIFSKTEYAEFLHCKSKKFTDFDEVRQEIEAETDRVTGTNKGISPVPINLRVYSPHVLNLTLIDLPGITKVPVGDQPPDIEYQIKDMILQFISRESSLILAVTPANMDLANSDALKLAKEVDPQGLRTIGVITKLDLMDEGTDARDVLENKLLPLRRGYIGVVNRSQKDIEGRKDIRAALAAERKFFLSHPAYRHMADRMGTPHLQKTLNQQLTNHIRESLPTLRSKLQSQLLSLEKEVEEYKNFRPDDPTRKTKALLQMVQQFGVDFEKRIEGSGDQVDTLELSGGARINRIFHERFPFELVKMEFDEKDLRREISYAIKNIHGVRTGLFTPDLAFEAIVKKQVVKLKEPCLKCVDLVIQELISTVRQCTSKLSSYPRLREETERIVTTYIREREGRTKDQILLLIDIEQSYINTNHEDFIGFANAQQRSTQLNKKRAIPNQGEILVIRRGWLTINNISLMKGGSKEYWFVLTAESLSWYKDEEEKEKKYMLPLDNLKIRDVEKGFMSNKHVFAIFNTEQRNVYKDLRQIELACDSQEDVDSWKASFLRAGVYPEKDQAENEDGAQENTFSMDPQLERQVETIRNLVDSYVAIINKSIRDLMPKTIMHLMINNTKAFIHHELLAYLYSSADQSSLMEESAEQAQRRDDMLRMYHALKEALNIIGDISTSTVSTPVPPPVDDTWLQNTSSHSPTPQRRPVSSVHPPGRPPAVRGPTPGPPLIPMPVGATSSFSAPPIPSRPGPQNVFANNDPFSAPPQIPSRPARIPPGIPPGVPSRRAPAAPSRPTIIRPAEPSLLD
B2: Dynamin-2 (Rattus norvegicus (Rat)), P39052 (parent)
chain: B1 partner

Variants of: B1
Settings: with dyn2_rat Dnm2, P39052

effect of a mutation on the interaction | Variant
disrupting interaction | Y925F

Variants of: B2
Settings: with fak1_mouse Ptk2, P34152

effect of a mutation on the interaction | Variant
increasing interaction | K44E
